This note sets out measurements from patent US20180128830A1, “DETECTION OF HUMAN CYTOMEGALOVIRUS IN BREAST CANCER” (priority 2015, published 2018).

What all share (format): cell-based, human
For one assay, the system named is uPAR. The assay can be described thus: uPAR ELISA on culture supernatants. Conditions: 10 ng/ml. The method, then:
(§1) DuoSet ELISA kits (R&D Systems) were used to quantify uPAR, PAI-1, and MMP-3. For uPAR and PAI-1 measurement, MDA cells were seeded in triplicate in 96-well plate at 5.0×10^4 cell/mL density with complete L-15 media and treated with 10 ng/mL of either cmvIL-10 or hIL-10 for the indicated times and supernatants were collected daily. The ELISA was carried out on supernatants according to manufacturer's instructions using and following the addition of substrate and stop solution, absorbance of the plate was measured at 450 nm using a Dynex Opsys MR microplate reader. Sample concentrations were interpolated from a standard curve using linear regression analysis. For cell-associated MMP-3, MDA cells were seeded in 96-well plates and treated with cmvIL-10 as above. Cells were treated with cell lysis buffer (150 mM NaCl, 20 mM HEPES, 0.5% Triton-X-100, 1.0 mM NaOV4, 1.0 mM EDTA, 0.1% NaN3) supplemented with 1× protease inhibitors (Calbiochem, EMD Chemicals, San Diego Calif.) and were collected daily for the indicated time points. The lysates were evaluated for MMP-3 according to the manufacturer's instructions (R&D Systems).

In assay [1] the test system is MDA-MB-231 cells. The assay can be described thus: Migration assay toward EGF (modified Boyden chamber). The note with it: 5 hrs; for cell movement toward cytokine alone: no EGF. The method, then: Cells were harvested and resuspended at a density of 2×10^6 cells per ml in complete medium. A total volume of 0.1 ml cell suspension (2×10^5 cells) was placed in the upper chamber of a ThinCert filter with 8 μm pores in a 24-well plate (Greiner Bio-One North America, Monroe, Calif.). […] Medium from the lower chamber was collected, used to rinse the bottom of the filter twice, and then centrifuged at 1000 rpm for 10 min. The cell pellet was resuspended in 0.1 ml media and transferred to a white 96-well plate. Viable cell number was quantified using the Cell Titer Glo Assay kit according to the manufacturer's protocol.

The test system of the next assay is PAI-1. The experiment in a line: PAI-1 ELISA on culture supernatants. The note with it: 10 ng/ml; for PAI-1 production: after 24 hours, maintained over 72 hours. The method, then:
as §1
A general note: In an ELISA, binding on a coated surface is turned into a signal by an enzyme label.

In assay [2] the test system is MDA-MB-231 cells. The experiment in a line: Matrigel invasion toward EGF. The note with it: 100 ng/ml, 22 hours. The method, then:
Transwell migration was monitored using 96-well BD Fluoroblock plates with 8 μm filters (Corning, Inc., Corning, N.Y.). Cells were harvested and suspended at density of 2.0×10^6 cells/ml in migration media (L-15+1% FBS), and a volume of 75 μl cell suspension was placed on top of the filter inserts. Where indicated, IL-10R neutralizing antibody was added at a concentration of 30 μg/ml. […] After 5 hrs at 37° C., cells that traversed the filter and entered the lower chamber were quantified by the addition of Cell Titer Glo (Promega, Madison, Wis.) using a Turner Veritas luminometer. For invasion, 96-well matrigel-coated BD Fluoroblock transwell invasion plates (Corning) were used. Invasion plates were re-hydrated with warm media at 37° C. for 3 hrs and then 75 μl cell suspension loaded onto the hydrated filters as described above. Where indicated, 10 μM Stat3 inhibitor was included with cells in the top chamber; cmvIL-10, hIL-10 or conditioned medium was present in both chambers. […] At harvest, cells that had degraded the matrigel and entered the lower chamber were quantified by the addition of Cell Titer Glo as above.

In another assay the test system is HEK293 cells. The experiment in a line: Transwell migration toward CXCL12. Conditions: 0.1 μg/ml cmvIL-10 in lower chamber, 4 hours. The method, then: Transwell migration assays were performed by suspending cells at a density of 5×10^4 cells/ml in migration media (MEM or RPMI […] media plus 0.5% FBS). A total of 75 μl of cells was placed onto the upper chamber of a 96-well transwell system with 5.0 μm pores (Corning-Costar, Corning, N.Y.). The lower chamber contained 235 μl of migration media with CXCL12 plus or minus cmvIL-10 as indicated. Plates were incubated for four hours at 37° C., and then cells that traversed through the filter into the lower chamber were quantified via the addition of CellTitre-Glo reagent (Promega, Madison, Wis.) according to manufacturer's instructions.

A further assay concerns MTSS1. The assay can be described thus: MTSS1 immunoblotting. The note with it: 10 ng/mL, beyond 24 hours. The method, then:
Confluent T-75 flasks of MDA-MB-231 cells were treated with 10 ng/mL cmvIL-10 (R&D systems) for the indicated times, then scraped and harvested into cell lysis buffer (150 mM NaCl, 20 mM HEPES, 0.5% Triton-X-100, 1.0 mM NaOV4, 1.0 mM EDTA, 0.1% NaN3) containing 1× protease inhibitors (Calbiochem). Cell lysates were clarified via centrifugation, heated at 70° C. for 10 min in reducing buffer, and the proteins separated on a 4-12% Tris-Base SDS-PAGE gel (Life Technologies, Grand Island, N.Y.). After transfer to nitrocellulose, the membrane was incubated in blocking solution (5% milk+TBS) for 1 hr at room and then probed with primary antibody: 1:1000 dilution for MMP-3 or MTSS-1 antibodies (Santa Cruz), or MAPK antiserum (Cell Signaling Tech, Danvers, Mass.), in blocking solution overnight, oscillating on a platform rocker at 4.0° C. After three washes, the membranes were incubated with a 1:2000 dilution of appropriate AP-conjugated secondary antibody on a platform rocker at room temperature for 1 hr. Protein bands were detected using western blue stabilized AP substrate (Promega, Madison, Wis.). For zymography, cell lysates were denatured in SDS buffer under non-reducing conditions without heat, and run on a 4-16% Zymogram gel using Tris-Glycine SDS running buffer according to manufacturer's instructions. […]

For the next assay, the system named is MMP-3. The assay can be described thus: MMP-3 ELISA on cell lysates. Conditions: 10 ng/ml, 48 hours. The method, then: as §1

For “hIL-10: purified recombinant human interleukin-10 from R&D Systems”, the uPAR protein levels entry in the assay with uPAR is “elevated”. Moreover, the “cell movement toward cytokine alone” value with MDA-MB-231 cells [1] was “failed to stimulate cell movement”. Further, in the assay with PAI-1, the PAI-1 production result is “significant increase in PAI-1 production”.

B1: cmvIL-10 (protein)
chain: ATTTTIKNTKPQCRPEDYATRLQDLRVTFHRVKPTLQREDDYSVWLDGTVVKGCWGCSVMDWLLRRYLEIVFPAGDHVYPGLKTELHSMRSTLESIYKDMRQCPLLGCGDKSVISRLSQEAERKSDNGTRKGLSELDTLFSRLEEYLHSRK
For the molecule B1, the uPAR protein levels result in the assay on uPAR is listed as “elevated”. Also, in the assay with MDA-MB-231 cells [2], the “invasion through matrigel compared with hIL-10” value is reported as “significantly greater extent than hIL-10” and the “invasion through matrigel toward EGF” value was “strong enhancer of cell invasion”. Moreover, in the assay with MDA-MB-231 cells [1] (100 ng/ml cytokine plus EGF), the “migration response toward EGF with cytokine in lower chamber” value is “significantly increased”. The “cell movement toward cytokine alone” value in the assay on MDA-MB-231 cells [1] is on record as “did not stimulate cell movement”. Moreover, the “migration toward CXCL12” value with HEK293 cells is recorded as “significantly increased”. Also, in the assay on PAI-1 (12 hours), the PAI-1 protein secreted result is on record as “significantly increased”. In addition, the PAI-1 production entry with PAI-1 was “significant increase in PAI-1 production”. Moreover, the “MTSS1 protein (82 kD band)” value with MTSS1 is on record as “significant decrease in MTSS1 expression”. Further, the “cell-associated MMP-3 (cell lysates)” value in the assay on MMP-3 was “increased significantly”.
